± gives the uncertainty stated by the source.
Assay: self-splicing fitness, log relative to wild type (ln ratio); higher = more splicing; Tetrahymena group I intron in knt gene, E. coli kanamycin selection, DiMSum; sequences stand for … in CUCUCU…GGAGGGAAAAGUUAUCAGGCAUGCACCUGGUAGCUAGUCUUUAAACCAAUAGAUUGCAUCGGUUUAAAAGGCAAGACCGUCAAAUUGCGGGAAAGGGGUCAACAGCCGUUCAGUACCAAGUCUCAGGGGAAACUUUGAGAUGGCCUUGCAAAGGGUAUGGUAAUAAGCUGACGGACAUGGUCCUAACCACGCAGCCAAGUCCUAAGUCAACAGAUCUUCUGUUGAUAUGGAUGCAGUUCACAGACUAAAUGUCGGUCGGGGAAGAUGUAUUCUUCUCAUAAGAUAUAGUCGGACCUCUCCUUAAUGGGAGCUAGCGGAUGAAGUGAUGCAACACUGGAGCCGCUGGGAACUAAUUUGUAUGCGAAAGUAUAUUGAUUAGUUUUGGAGUACUCGUGGUCG
How it was run: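 Fitness was computed with DiMSum as the error-weighted combination of replicate fold changes, kanamycin versus none, each normalised to wild type. The library randomised all eight intron nucleotides of the P1ex region, with the intron placed in the knt kanamycin-resistance gene on pET-22b(+) in E. coli BL21(DE3). Six replicate transformations were grown overnight at 37°C or 30°C on LB agar with or without 25 μg/mL kanamycin, plus 100 μg/mL carbenicillin, 50 μM IPTG and 0.2% rhamnose. Pooled colonies were amplicon-sequenced on an Illumina HiSeq 2500.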

Sequence | self-splicing fitness (ln) (30 °C) | self-splicing fitness (ln) (37 °C)
CUGAAGCAAUAUUACGAAUA | -2.41 ± 0.48 | -2.22 ± 0.43
CAGGAGCAAUAUUACGAGAA | – | -0.522 ± 0.22
CCUUAGCAAUAUUACGGAAG | -2.61 ± 0.14 | -1.13 ± 0.14
AUUCAGCAAUAUUACGCUUU | -0.755 ± 0.055 | -0.787 ± 0.068
GAAGAGCAAUAUUACGUCUC | -2.37 ± 0.37 | -1.19 ± 0.49
GACAAGCAAUAUUACGGUUC | -3.57 ± 0.16 | -2.81 ± 0.32
AAAGAGCAAUAUUACGUUCC | -3.94 ± 0.31 | -2.49 ± 0.29
UAAUAGCAAUAUUACGACGU | -3.74 ± 0.33 | -1.76 ± 0.18
CUAGAGCAAUAUUACGCGAG | -0.514 ± 0.11 | 0.0831 ± 0.13
GAUCAGCAAUAUUACGGGGU | -3.13 ± 0.3 | -2.32 ± 0.26
CGAGAGCAAUAUUACGCUGC | -2.93 ± 0.36 | -2.48 ± 0.37
GAUCAGCAAUAUUACGGCAU | -0.0116 ± 0.068 | 0.0262 ± 0.092
AAACAGCAAUAUUACGCCCU | -0.534 ± 0.11 | 0.201 ± 0.16
UCCCAGCAAUAUUACGGUCA | -0.0309 ± 0.062 | 0.226 ± 0.072
CUGAAGCAAUAUUACGCCAA | -3.31 ± 0.41 | –
ACGUAGCAAUAUUACGUCGC | -3.64 ± 0.35 | -1.91 ± 0.27
GCCCAGCAAUAUUACGCUGC | – | -1.55 ± 0.41
CUUAAGCAAUAUUACGCCCG | -1.46 ± 0.28 | 0.386 ± 0.3
UAAUAGCAAUAUUACGGAAG | -3.02 ± 0.21 | -0.76 ± 0.16
CACAAGCAAUAUUACGAUCU | -2.56 ± 0.09 | -2.85 ± 0.13

Sequence | self-splicing fitness (ln) (30 °C) | self-splicing fitness (ln) (37 °C)
GCACAGCAAUAUUACGAUCA | -0.983 ± 0.13 | -0.209 ± 0.14
UGUAAGCAAUAUUACGCCCA | -0.177 ± 0.18 | 0.0098 ± 0.2
CUUGAGCAAUAUUACGCGUU | -4.07 ± 0.39 | -2.14 ± 0.23
UCAGAGCAAUAUUACGGCGU | -3.42 ± 0.22 | -2.05 ± 0.18
AAGGAGCAAUAUUACGGUAC | -3.2 ± 0.47 | -2.19 ± 0.4
AGGGAGCAAUAUUACGCCAA | – | -2.67 ± 0.38
ACGGAGCAAUAUUACGCAGG | -1.72 ± 0.15 | -2.41 ± 0.35
AGAAAGCAAUAUUACGUCAA | -1.61 ± 0.11 | -0.692 ± 0.1
GUCGAGCAAUAUUACGGUAU | -1.34 ± 0.084 | -0.615 ± 0.12
UGUCAGCAAUAUUACGCAAA | -0.635 ± 0.11 | -0.0477 ± 0.12
AAUAAGCAAUAUUACGGUUC | -2.72 ± 0.14 | -1.77 ± 0.15
ACCGAGCAAUAUUACGAGUG | -2.82 ± 0.11 | -1.49 ± 0.094
GUCUAGCAAUAUUACGGCAU | -0.166 ± 0.092 | 0.88 ± 0.11
UCCCAGCAAUAUUACGUUCC | -2.26 ± 0.21 | -2.44 ± 0.27
ACGGAGCAAUAUUACGCAUG | -2.65 ± 0.2 | -2.28 ± 0.23
ACCAAGCAAUAUUACGACUG | -1.11 ± 0.062 | -1.07 ± 0.099
GAGUAGCAAUAUUACGCUAG | -2.38 ± 0.18 | -0.481 ± 0.18
ACACAGCAAUAUUACGCGCU | -0.741 ± 0.059 | -0.491 ± 0.068
AAGCAGCAAUAUUACGUUUC | -3.3 ± 0.16 | -2.27 ± 0.31

Reference: the supplement of paper PMC7877785
